From publication PMC10945758 (Proceedings of the National Academy of Sciences of the …, 2024)
Positions count from the first letter of the chain named.

Experiments:
mouse TIFA(1−150) = target: T1, mouse TIFA(1−150) (mouse, UniProt Q793I8 1-150); assay: SEC
T1 sequence (looked up): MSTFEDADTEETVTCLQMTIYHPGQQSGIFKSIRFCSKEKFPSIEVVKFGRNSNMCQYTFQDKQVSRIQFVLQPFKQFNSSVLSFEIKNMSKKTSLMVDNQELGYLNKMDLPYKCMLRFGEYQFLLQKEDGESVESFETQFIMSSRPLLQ

SEC = target: the molecule itself; assay: SEC
mouse TIFA(1−150/C36S) = target: T2, mouse TIFA(1−150/C36S) (mouse, UniProt Q793I8 1-150, C36S); assay: crystal structure
T2 sequence (looked up): T1 sequence (looked up) with C36S

B1: mouse TIFAB, full length, coexpressed with TIFA (natural protein, UniProt Q8JZM6 1-147, looked up)
chain: MERPLTVLQVSLYHPTQGPVAFAHVPQQLQHDASRLLVGRGQNTHLQLQLPQLSRYHLSLEPYLEKGSSLLAFCLKVLTRKSCVWVNGLPLRYLEQVPLGTINRISFSGIQMLVRKEGGASLETFVCYFHLSPSPLIYRPKAQETDE
B1: binds (mouse TIFA(1−150)).

B2: mouse TIFA dimer (natural protein, UniProt Q793I8 1-184, looked up)
chain: MSTFEDADTEETVTCLQMTIYHPGQQSGIFKSIRFCSKEKFPSIEVVKFGRNSNMCQYTFQDKQVSRIQFVLQPFKQFNSSVLSFEIKNMSKKTSLMVDNQELGYLNKMDLPYKCMLRFGEYQFLLQKEDGESVESFETQFIMSSRPLLQENNWPTQNPIPEDGMYSSYFTHRSSPSEMDENEL
In the case of B2, the “stoichiometry N” value (SEC) is reported as 2.

B3: mouse TIFAB(1−139) (domain or fragment, UniProt Q8JZM6 1-139, looked up)
chain: MERPLTVLQVSLYHPTQGPVAFAHVPQQLQHDASRLLVGRGQNTHLQLQLPQLSRYHLSLEPYLEKGSSLLAFCLKVLTRKSCVWVNGLPLRYLEQVPLGTINRISFSGIQMLVRKEGGASLETFVCYFHLSPSPLIYR
B3: binds (mouse TIFA(1−150/C36S)).
